Experimental data published in publication PMC9482650, “Quantitative fragmentomics allow affinity mapping of interactomes” (Nature Communications, 2022).

T1: NHERF3_1, Q5T2W1
T1 sequence (Q5T2W1 4-100, limits assumed, looked up): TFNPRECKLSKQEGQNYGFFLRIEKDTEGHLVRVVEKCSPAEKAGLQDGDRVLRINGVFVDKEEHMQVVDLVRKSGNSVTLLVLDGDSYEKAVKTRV

T2: DFNB31_3, Q9P202
T2 sequence (Q9P202 811-907, limits assumed, looked up): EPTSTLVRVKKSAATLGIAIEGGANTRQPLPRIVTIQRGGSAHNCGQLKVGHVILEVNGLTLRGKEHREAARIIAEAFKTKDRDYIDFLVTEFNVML

T3: NHERF3_3, Q5T2W1
T3 sequence (Q5T2W1 238-333, limits assumed, looked up): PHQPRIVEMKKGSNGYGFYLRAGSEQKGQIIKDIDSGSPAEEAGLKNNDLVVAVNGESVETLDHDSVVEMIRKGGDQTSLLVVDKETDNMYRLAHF

T4: APBA2_1, Q99767
T4 sequence (Q99767 563-664, limits assumed, looked up): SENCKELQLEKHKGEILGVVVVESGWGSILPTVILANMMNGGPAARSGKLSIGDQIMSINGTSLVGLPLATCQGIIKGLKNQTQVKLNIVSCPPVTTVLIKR

T5: SNTA1, Q13424
T5 sequence (Q13424 82-180, limits assumed, looked up): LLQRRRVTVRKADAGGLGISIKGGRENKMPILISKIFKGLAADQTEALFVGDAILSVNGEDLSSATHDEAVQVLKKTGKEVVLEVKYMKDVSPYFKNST

T6: MPDZ_10, O75970
T6 sequence (O75970 1624-1722, limits assumed, looked up): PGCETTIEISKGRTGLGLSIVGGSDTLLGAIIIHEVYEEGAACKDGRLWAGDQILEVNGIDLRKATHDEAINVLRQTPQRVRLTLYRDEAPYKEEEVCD

T7: DLG3_1, Q92796
T7 sequence (Q92796 125-227, limits assumed, looked up): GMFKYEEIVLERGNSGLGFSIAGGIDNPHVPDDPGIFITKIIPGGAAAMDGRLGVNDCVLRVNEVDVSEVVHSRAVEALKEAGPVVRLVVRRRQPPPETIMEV

T8: HTRA3, P83110
T8 sequence (P83110 354-453, limits assumed, looked up): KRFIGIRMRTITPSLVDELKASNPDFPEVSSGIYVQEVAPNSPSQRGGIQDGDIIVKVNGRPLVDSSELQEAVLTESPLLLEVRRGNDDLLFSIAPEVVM

T9: TJP3_3, O95049
T9 sequence (O95049 375-456, limits assumed, looked up): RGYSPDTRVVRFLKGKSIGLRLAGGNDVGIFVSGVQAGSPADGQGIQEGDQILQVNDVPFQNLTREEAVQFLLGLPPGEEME

T10: MPP6, Q9NZW5
T10 sequence (Q9NZW5 125-219, limits assumed, looked up): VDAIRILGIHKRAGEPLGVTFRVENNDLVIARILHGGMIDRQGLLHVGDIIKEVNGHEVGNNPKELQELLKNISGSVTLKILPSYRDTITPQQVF

T11: LNX2_2, Q8N448
T11 sequence (Q8N448 334-432, limits assumed, looked up): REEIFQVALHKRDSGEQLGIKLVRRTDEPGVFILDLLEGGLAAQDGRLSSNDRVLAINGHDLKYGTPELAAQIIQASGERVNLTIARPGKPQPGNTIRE

T12: RAPGEF6, Q8TEU7
T12 sequence (Q8TEU7 525-625, limits assumed, looked up): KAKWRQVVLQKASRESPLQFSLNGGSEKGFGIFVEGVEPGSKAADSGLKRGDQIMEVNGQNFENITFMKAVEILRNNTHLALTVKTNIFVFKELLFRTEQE


Legend:
Assay in all cases: holdup assay
Set-up in all cases: key: below the threshold = too weak to quantify, mostly under pKd 3.1 to 4
Details in all cases: plain residues with an end cap or a label only (N-terminal biotin on a linker: ado-ado)
NHERF3_1, Q5T2W1 = biological target: T1, NHERF3_1, Q5T2W1
DFNB31_3, Q9P202 = biological target: T2, DFNB31_3, Q9P202
NHERF3_3, Q5T2W1 = biological target: T3, NHERF3_3, Q5T2W1
APBA2_1, Q99767 = biological target: T4, APBA2_1, Q99767
SNTA1, Q13424 = biological target: T5, SNTA1, Q13424
SCRIB_3, Q14160 = biological target: SCRIB_3, Q14160
Sequence of SCRIB_3, Q14160 (Q14160 999-1103): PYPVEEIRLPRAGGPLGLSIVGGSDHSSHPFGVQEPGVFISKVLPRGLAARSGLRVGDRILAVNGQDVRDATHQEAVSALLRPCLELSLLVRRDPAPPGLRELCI

DLG1_3, Q12959 = biological target: DLG1_3, Q12959
Sequence of DLG1_3, Q12959 (Q12959 457-571): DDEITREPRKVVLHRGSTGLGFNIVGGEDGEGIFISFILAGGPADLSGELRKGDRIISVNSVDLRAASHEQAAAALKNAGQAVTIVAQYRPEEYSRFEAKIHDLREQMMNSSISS

MAGI1_2, Q96QZ7 = biological target: MAGI1_2, Q96QZ7
Sequence of MAGI1_2, Q96QZ7 (Q96QZ7 456-580): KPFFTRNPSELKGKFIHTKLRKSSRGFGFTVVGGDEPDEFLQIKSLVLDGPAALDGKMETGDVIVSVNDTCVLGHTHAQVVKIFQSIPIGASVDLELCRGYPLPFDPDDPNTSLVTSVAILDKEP

MPDZ_10, O75970 = biological target: T6, MPDZ_10, O75970
DLG1_2, Q12959 = biological target: DLG1_2, Q12959
Sequence of DLG1_2, Q12959 (Q12959 314-412): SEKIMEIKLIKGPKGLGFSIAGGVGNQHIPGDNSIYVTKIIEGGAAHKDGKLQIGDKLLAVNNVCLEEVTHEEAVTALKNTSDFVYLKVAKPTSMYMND

DLG3_1, Q92796 = biological target: T7, DLG3_1, Q92796
LDB3, O75112 = biological target: LDB3, O75112
Sequence of LDB3, O75112 (O75112 1-94): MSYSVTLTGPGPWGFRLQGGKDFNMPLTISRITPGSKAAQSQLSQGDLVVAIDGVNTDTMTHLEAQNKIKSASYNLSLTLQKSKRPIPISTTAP

HTRA3, P83110 = biological target: T8, HTRA3, P83110
AHNAK1, Q09666 = biological target: AHNAK1, Q09666
Sequence of AHNAK1, Q09666 (Q09666 4-100): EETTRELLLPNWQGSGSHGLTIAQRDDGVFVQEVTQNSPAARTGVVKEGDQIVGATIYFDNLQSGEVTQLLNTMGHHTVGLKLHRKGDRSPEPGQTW

Inadl_9, Q8NI35 = biological target: Inadl_9, Q8NI35
Sequence of Inadl_9, Q8NI35 (Q8NI35 1530-1615): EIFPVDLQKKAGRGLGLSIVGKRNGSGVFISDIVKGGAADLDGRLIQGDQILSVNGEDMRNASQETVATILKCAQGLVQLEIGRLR

LNX1_2, Q8TBB1 = biological target: LNX1_2, Q8TBB1
Sequence of LNX1_2, Q8TBB1 (Q8TBB1 371-470): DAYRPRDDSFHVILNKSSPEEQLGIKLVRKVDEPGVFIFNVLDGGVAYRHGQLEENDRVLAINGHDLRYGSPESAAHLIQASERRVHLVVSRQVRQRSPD

NOS1, P29475 = biological target: NOS1, P29475
Sequence of NOS1, P29475 (P29475 9-101): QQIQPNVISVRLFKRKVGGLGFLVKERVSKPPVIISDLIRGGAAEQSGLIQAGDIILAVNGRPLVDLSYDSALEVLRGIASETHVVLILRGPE

TJP3_3, O95049 = biological target: T9, TJP3_3, O95049
MPP6, Q9NZW5 = biological target: T10, MPP6, Q9NZW5
GORASP1, Q9BQQ3 = biological target: GORASP1, Q9BQQ3
Sequence of GORASP1, Q9BQQ3 (Q9BQQ3 1-208): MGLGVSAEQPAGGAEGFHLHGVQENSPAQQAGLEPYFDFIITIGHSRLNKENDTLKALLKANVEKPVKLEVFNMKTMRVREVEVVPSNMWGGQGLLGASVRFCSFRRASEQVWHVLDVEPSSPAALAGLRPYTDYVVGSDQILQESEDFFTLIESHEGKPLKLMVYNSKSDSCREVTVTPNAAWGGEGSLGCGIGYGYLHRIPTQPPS

LNX2_2, Q8N448 = biological target: T11, LNX2_2, Q8N448
PDLIM1, O00151 = biological target: PDLIM1, O00151
Sequence of PDLIM1, O00151 (O00151 1-87): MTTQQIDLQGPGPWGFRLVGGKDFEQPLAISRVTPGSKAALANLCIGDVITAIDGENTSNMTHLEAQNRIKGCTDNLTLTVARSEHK

NHERF4_1, Q86UT5-2 = biological target: NHERF4_1, Q86UT5-2
Sequence of NHERF4_1, Q86UT5-2 (Q86UT5 other isoform, or with tags, fused parts or gaps): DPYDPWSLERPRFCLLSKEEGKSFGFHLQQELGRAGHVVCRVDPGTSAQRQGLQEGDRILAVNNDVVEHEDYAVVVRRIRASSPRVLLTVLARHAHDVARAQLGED

RAPGEF6, Q8TEU7 = biological target: T12, RAPGEF6, Q8TEU7
PICK1, Q9NRD5 = biological target: PICK1, Q9NRD5
Sequence of PICK1, Q9NRD5 (Q9NRD5 17-115): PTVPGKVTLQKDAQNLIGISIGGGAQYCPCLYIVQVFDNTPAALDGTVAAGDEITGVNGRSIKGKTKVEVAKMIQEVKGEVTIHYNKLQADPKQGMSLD

Inadl_2, Q8NI35 = biological target: Inadl_2, Q8NI35
Sequence of Inadl_2, Q8NI35 (Q8NI35 238-335): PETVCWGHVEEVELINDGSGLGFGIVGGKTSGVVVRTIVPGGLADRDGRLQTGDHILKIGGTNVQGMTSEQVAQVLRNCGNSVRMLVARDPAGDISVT

Row | pKd (NHERF3_1, Q5T2W1) | pKd (DFNB31_3, Q9P202) | pKd (NHERF3_3, Q5T2W1) | pKd (APBA2_1, Q99767) | pKd (SNTA1, Q13424) | pKd (SCRIB_3, Q14160) | pKd (DLG1_3, Q12959) | pKd (MAGI1_2, Q96QZ7) | pKd (MPDZ_10, O75970) | pKd (DLG1_2, Q12959) | pKd (DLG3_1, Q92796) | pKd (LDB3, O75112) | pKd (HTRA3, P83110) | pKd (AHNAK1, Q09666) | pKd (Inadl_9, Q8NI35) | pKd (LNX1_2, Q8TBB1) | pKd (NOS1, P29475) | pKd (TJP3_3, O95049) | pKd (MPP6, Q9NZW5) | pKd (GORASP1, Q9BQQ3) | Binder | further results
1 | 4.07 | below the threshold | below the threshold | below the threshold | below the threshold | below the threshold | below the threshold | below the threshold | below the threshold | 3.88 | 3.61 | below the threshold | 4.26 | below the threshold | below the threshold | below the threshold | 3.65 | below the threshold | below the threshold | below the threshold | QLSFNTDTLC [ABCA2, Q9BZC7] | pKd (LNX2_2, Q8N448): 3.78; pKd (PDLIM1, O00151): below the threshold; pKd (NHERF4_1, Q86UT5-2): 4.18; pKd (RAPGEF6, Q8TEU7): below the threshold; pKd (PICK1, Q9NRD5): below the threshold; pKd (Inadl_2, Q8NI35): below the threshold
2 | below the threshold | 3.76 | below the threshold | below the threshold | below the threshold | 3.84 | below the threshold | below the threshold | below the threshold | below the threshold | below the threshold | below the threshold | 4.12 | below the threshold | below the threshold | below the threshold | below the threshold | below the threshold | below the threshold | 4.12 | EDLEDEWEVI [TECPR2, O15040] | pKd (LNX2_2, Q8N448): 4.18; pKd (PDLIM1, O00151): below the threshold; pKd (NHERF4_1, Q86UT5-2): below the threshold; pKd (RAPGEF6, Q8TEU7): below the threshold; pKd (PICK1, Q9NRD5): below the threshold; pKd (Inadl_2, Q8NI35): below the threshold
